Data on one substance can be found in paper PMC6435710.

Assay [1] has as its target salmon Calcitonin (salmon). In words: cross-linking; PICUP (Ru(bpy)3, ammonium persulfate, 2 s light) then tricine SDS-PAGE, silver stain and densitometry; native unfractioned Monomer-enriched sample (powder dissolved in desalted water, 80 uM).
The target in assay [2] is salmon Calcitonin (salmon). In words: SEC; Sephadex G50 column at 4 °C, 5 mM phosphate buffer pH 7.4; spontaneously aggregated native sCT (2 mg incubated overnight at room temperature); calibrated with BSA, cytochrome c, aprotinin, somatostatin; absorbance at 280 nm. In general terms: Size exclusion chromatography separates by hydrodynamic size, large species first.
Assay [3] addresses salmon Calcitonin (salmon). Kind of assay: cross-linking; PICUP (Ru(bpy)3, ammonium persulfate, 2 s light) then tricine SDS-PAGE, silver stain and densitometry; PFOs-enriched SEC fractions (29th and 30th), 80 uM.

In the case of salmon Calcitonin (peptide), the PFOs% (trimers + tetramers + pentamers + hexamers percentage of the gel lane) is 16.5% in assay [1] and 54% in assay [3]. Further, the stoichiometry N (usually a count of units in the complex or per binding partner) in assay [2] is 2.
